Data on 11 molecules can be found in patent publication US20090286854A1, “APTAMERS DIRECTED TO MUCI” (The Open University, published 2009).

The term Kd denotes the constant that tells how readily two partners part at equilibrium.

Series [1] has as its target 5TR MUC1 recombinant protein (human). The series can be described thus: affinity chromatography, elution from the MUC1 chromatography matrix.
Series [2] addresses T1, MUC1 5TR (five tandem repeat recombinant MUC1, unglycosylated) (Homo sapiens, UniProt P15941 P15941:161-260). The series can be described thus: SPR; 100 mM NaCl, 5 mM MgCl2, pH 7.4; printed ka and kd would give 0.69 nM. Conditions: tags: 6xHis; expressed in E. coli BL21; biotin-XX labelled for SPR; about 11.8 kDa. Here is the method:
(§1) Biotinylated 5TR-MUC1 protein was immobilised on a BIAcore SA sensor chip (gold-streptavidin) and the system was optimised to reduce mass transport, steric hindrance, crowding, avidity and aggregation. A range of peptide concentrations, ranging from 1 μM to 1 nM were tested under different injection times and the optimum conditions used were 100 μL of 1 nM peptide in running buffer perfused over each individual channel at the rate of 25 μL/min for […]. Chip regeneration to peptide level was followed by the subsequent application of a 30 sec pulse with a solution of 10 mM NaOH. The aptamers were prepared in their selection buffers (phosphate buffer containing 100 mM NaCl, 5 mM MgCl₂, pH 7.4) at 1 μM and were applied with 30 sec injections with a 5 sec wash step with selection buffer to allow for non-specific analyte removal. The chip surfaces were regenerated (elution step) by the application of a 10 μL pulse of 1.5 M NaCl, 5 mM MgCl₂, pH 7.4.
(§2) The experimental BIAcore data were fitted to two mathematical equations for the determination of association (kₐ) and dissociation constants (kd) using non-linear regression analysis. […]
(§3) The concentration of free aptamer was assumed to be constant since an excess amount was applied to the system when compared to the amount of MUC1. […] The Kd was calculated from the following relationship: Kd is equal to kd/kₐ. […]
On the technique in general: In SPR one partner is held on a chip, and binding of the other changes the refractive index at the surface.

Series [3] deals with MUC1 5TR glycosylated with GalNAc (Tn antigen) (Homo sapiens, UniProt P15941 P15941:161-260). The series can be described thus: pulldown; Ni-NTA magnetic beads, 100 mM NaCl, 5 mM MgCl2, pH 7.4, 37 C; values in figure only. Conditions: tags: 6xHis; expressed in E. coli BL21; glycosylated in vitro with ppGalNAc-T1. As to the method:
The Qiagen kit containing agarose magnetic beads in the proportion of 5% solution coated with nickel for His-tag purification was used for the assay. Seven tubes each containing 900 μl of start buffer (100 mM NaCl₂, 5 mM MgCl₂, pH 7.4) used to resuspend a 10 μM solution of glycosylated MUC1 5TR peptide were prepared according to manufacturer's instructions:
10 μl of the 5% beads solution was added to the solution and incubated at 4° C. for half an hour with shaking, After 30 minutes, supernatant was removed. The beads were washed by adding start buffer, allowing 1-5 min of washing time. 1 mM (500 μl) of each Glycosylated MUC1 aptamer solution in start buffer were added to the previously prepared magnetic beads containing his-tagged glycosylated MUC1. The solution containing complexed beads and aptamer solution were allowed to incubate at 37° C. for 1 hour with shaking.
After one hour the supernatant was removed and its absorbance was measured using a UV spectrometer (Eppendorf, USA) at 260 nm. The remaining Magnetic beads were washed three times with 500 μl of wash buffer (150 mM NaCl₂, 5 mM MgCl₂, pH 7.4). The supernatant was removed and 50 μl of elution buffer (1.5M NaCl₂, 5mM MgCl₂, pH 7.4) were added. The elution buffer was allowed to incubate with magnetic beads for 5 min with shaking. The magnetic beads were spun for 30 seconds at 4000 rpm to a pellet. The magnetic beads were attracted by a magnetic bar and supernatant was removed. The eluted supernatant was removed and measured using a UV spectrometer (Eppendorf, USA) 260 absorbance.

Series [4] addresses T1, MUC1 5TR (five tandem repeat …). The series can be described thus: SPR; 100 mM NaCl, 5 mM MgCl2, pH 7.4; printed ka and kd would give 0.85 nM; p17 and claim list print SEQ 2 with 3' G instead of C. Conditions: tags: 6xHis; expressed in E. coli BL21; biotin-XX labelled for SPR; about 11.8 kDa. Here is the method:
as §1, §2, §3

Series [5] has the same target. As to the kind of experiment: SPR; 100 mM NaCl, 5 mM MgCl2, pH 7.4; printed ka 0.207e7, kd 0.00098 would give 0.47 nM. Conditions: tags: 6xHis; expressed in E. coli BL21; biotin-XX labelled for SPR; about 11.8 kDa. Here is the method:
as §1, §2, §3

The target is the same in series [6]. The series can be described thus: SPR; 100 mM NaCl, 5 mM MgCl2, pH 7.4; printed ka and kd would give 0.83 nM. Conditions: tags: 6xHis; expressed in E. coli BL21; biotin-XX labelled for SPR; about 11.8 kDa. As to the method:
as §1, §2, §3

Sequence of MUC1 5TR glycosylated with GalNAc (Tn antigen) (P15941 141-240, one chain of several): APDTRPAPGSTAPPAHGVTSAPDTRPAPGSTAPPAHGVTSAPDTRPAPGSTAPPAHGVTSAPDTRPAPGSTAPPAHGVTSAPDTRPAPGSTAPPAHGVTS
T1 sequence (P15941 141-240, one chain of several): as above
Sequence of 5TR MUC1 recombinant protein (human) (main, as listed by the source): as the sequence (P15941 141-240, one chain of several) above

Regarding C595 anti-MUC1 monoclonal antibody, in series [1], the NaSCN concentration at elution from the affinity matrix turned out to be 0.8 M.
On to TACTGCATGCACACCACTTCAACTA (ssDNA) [MUC1 5TR-4], for which, in series [2], the dissociation constant Kd is 69 nM.
Take GGGTTATATTACTCGGCCGGTGTAA (ssDNA) [5TR-T1]: the binding result in series [3] is listed as “binds”.
Consider TAGCCTTAATGCCTTTGTAAGGCGA (ssDNA) [5TR-T6], for which the binding result in series [3] is reported as “binds”.
The same measure, in the same setting: as for AGTGGTGGTTTTATAAGACTGATAC (ssDNA) [5TR-T5], the entry is “binds”.
Turning to CGGTCTACGGAGCCGCGTTAAACTT (ssDNA) [5TR-T7], the binding result in series [3] is listed as “binds”.
For the molecule GGCTATAGCACATGGGTAAAACGAC (ssDNA) [MUC1 5TR-2], in series [4], the Kd is 85.2 nM.
For GAAGTGAAAATGACAGAACACAACA (ssDNA) [MUC1 5TR-1], the Kd in series [5] is 47.3 nM.
For GCTGGGTAAATAGATGATTCCCGGC (ssDNA) [5TR-T4], the binding result in series [3] is “binds”.
Regarding GGCGTACGGTAGGCGGGGTCAACTG (ssDNA) [5TR-T3], the binding result in series [3] is reported as “binds”.
With CAAACAATCAAACAGCAGTGGGGTG (ssDNA) [MUC1 5TR-3], the dissociation constant (Kd) in series [6] was found to be 83 nM.
